Experimental data as given in article PMC4006364 (Nature chemical biology, 2014).
Positions count from the first letter of the chain named. Like-named read-outs stand apart in the source and are kept apart here.

What was measured:
AfXPB [1] = molecular target: T1, AfXPB (Archaeoglobus fulgidus, UniProt O29889); assay: gel mobility shift, inhibition of […]-G4 DNA binding
T1 sequence (O29889 1-452): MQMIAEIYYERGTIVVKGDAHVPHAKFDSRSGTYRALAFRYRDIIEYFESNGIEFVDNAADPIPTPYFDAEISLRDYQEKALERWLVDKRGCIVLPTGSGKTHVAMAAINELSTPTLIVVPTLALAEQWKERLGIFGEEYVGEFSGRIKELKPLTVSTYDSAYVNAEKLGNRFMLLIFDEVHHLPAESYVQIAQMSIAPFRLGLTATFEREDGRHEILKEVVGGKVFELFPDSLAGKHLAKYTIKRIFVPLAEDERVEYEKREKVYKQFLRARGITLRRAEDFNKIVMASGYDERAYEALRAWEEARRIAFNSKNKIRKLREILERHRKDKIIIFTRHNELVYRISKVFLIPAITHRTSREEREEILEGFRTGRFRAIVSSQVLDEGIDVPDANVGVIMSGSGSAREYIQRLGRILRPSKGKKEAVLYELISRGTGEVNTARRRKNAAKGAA

SaXPD = SaXPD (Sulfolobus acidocaldarius, UniProt Q4JC68); conditions: 1 mM Mg-ATP, pH 6.5, 45 °C
AfXPB [2] = molecular target: T1, AfXPB; assay: gel mobility shift, inhibition of […]-G4 DNA binding; conditions: no Mg2+, pH 7.9, 50 °C; inhibits G4 DNA binding
XPB (AfXPB) WT [3] = molecular target: T2, XPB (AfXPB) WT (Archaeoglobus fulgidus, UniProt O29889 1-452); assay: EMSA
T2 sequence: T1 sequence (O29889 1-452)

AfXPB K101R = molecular target: T3, AfXPB K101R (Archaeoglobus fulgidus, UniProt O29889 1-452, K101R); assay: EMSA
T3 sequence: T1 sequence (O29889 1-452) with K101R

XPD (SaXPD) = molecular target: T4, XPD (SaXPD) (Sulfolobus acidocaldarius, UniProt Q4JC68 1-551); assay: EMSA
T4 sequence: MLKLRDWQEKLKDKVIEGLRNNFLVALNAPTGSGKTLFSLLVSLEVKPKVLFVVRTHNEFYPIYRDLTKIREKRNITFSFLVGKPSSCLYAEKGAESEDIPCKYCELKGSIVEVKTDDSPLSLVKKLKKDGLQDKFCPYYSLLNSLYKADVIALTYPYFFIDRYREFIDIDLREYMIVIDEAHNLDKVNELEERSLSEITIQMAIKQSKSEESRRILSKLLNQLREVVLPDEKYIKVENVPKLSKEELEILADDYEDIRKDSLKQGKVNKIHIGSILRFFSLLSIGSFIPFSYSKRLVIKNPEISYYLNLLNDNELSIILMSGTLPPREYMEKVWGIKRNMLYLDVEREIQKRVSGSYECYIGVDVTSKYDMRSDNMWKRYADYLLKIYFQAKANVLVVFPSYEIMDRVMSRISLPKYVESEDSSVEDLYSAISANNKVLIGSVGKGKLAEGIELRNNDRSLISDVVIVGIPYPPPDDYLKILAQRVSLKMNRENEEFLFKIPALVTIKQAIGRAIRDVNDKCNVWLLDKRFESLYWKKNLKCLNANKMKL

XPB (AfXPB) WT [4] = molecular target: T2, XPB (AfXPB) WT; assay: EMSA; remark: listed apart in the source

**Q.** With Nc1ncnc2c1ncn2[C@@H]1O[C@H](COP(=O)(O)OP(=O)(O)O)[C@@H](O)[C@H]1O [ADP] as the molecule, how does the Ki (AfXPB [1]) read?
**A.** ~4 mM

**Q.** With Nc1ncnc2c1ncn2[C@@H]1O[C@H](COP(=O)(O)OP(=O)(O)OP(=O)(O)O)[C@@H](O)[C@H]1O [ATP] as the molecule, how does the “32P-G4 DNA unwinding assay, native gel” value (SaXPD) read?
**A.** robust G4 DNA unwinding activity in the presence of ATP but not ATP-γS

**Q.** With Nc1ncnc2c1ncn2[C@@H]1O[C@H](COP(=O)(O)OP(=O)(O)OP(O)(O)=S)[C@@H](O)[C@H]1O [ATP-γS] as the molecule, how does the “inhibition of G4 DNA binding” value (AfXPB [2]) read?
**A.** ATP-γS similarly inhibited G4 DNA binding, so inhibition did not depend upon ATP hydrolysis

B1: G4 DNA (TP oligonucleotide) (structured_DNA)
DNA: TGGACCAGACCTAGCAGCTATGGGGGAGCTGGGGAAGGTGGGAATGTGA
**Q.** Does B1 bind (XPB (AfXPB) WT [3])?
**A.** binds

**Q.** Does B1 bind (AfXPB K101R)?
**A.** no binding

**Q.** Does B1 bind (XPD (SaXPD))?
**A.** binds

B2: dsDNA (dsDNA)
DNA 1: AGAATGGAGCAGGTGCGCTGCGAGCAGTG
DNA 2: CACTGCTCGCAGCGCACCTGCTCCATTCT
**Q.** Does B2 bind (XPB (AfXPB) WT [4])?
**A.** no binding

B3: ssDNA (ssDNA)
DNA: AGAATGGAGCAGGTGCGCTGCGAGCAGTG
**Q.** Does B3 bind (XPB (AfXPB) WT [4])?
**A.** no binding
